Laboratory results: patent US11447550B2, “Peptides for molecular detection of PD-L1” (THE CURATORS OF THE UNIVERSITY OF MISSOURI, priority 2016, dated 2022)
Ends that are not written are not given here.

Tests used:
[1] = target: T1, PD-L1 (Homo sapiens, UniProt Q9NZQ7); assay: Peptide library study of stability and PD-L1 affinity; type: binding; details: library of synthesized peptides
Experimental: Initial research was focuses on understanding the interaction of PD-1 and PD-L1 based on X-ray crystal structure data (FIG. 14) with the goal of identifying the peptide sequence that is selectively mediating the interactions. After the crystal structure of each protein was identified, a proprietary Fortran program was used to analyze which amino acid sequences interact most closely between the two proteins. Number of occurrences for each sequence was calculated and used to identify the peptide sequences used in this study. […] As a first step, a library of peptides was synthesized and the stability and PD-L1 affinity was studied. […] Data related to anti-PD-L1 and mock peptide was used to synthesize peptides for this study. The binding sequences of each peptide were further modified to incorporate either biotin or fluorophore for antigen detection, and to increase solubility of the peptide.

[2] = target: T1, PD-L1; assay: Flow cytometry using patient tissues and whole blood; type: cell-based; design: Seven PD-L1 expressing NSCLC patient tissues were obtained from the MU OneHealth tissue bank; tissue MU OneHealth tissue bank; U.S. Biomax (TMA) LC1923; host or cells: FFPE placenta, seven NSCLC patient tissues, 192-case lung cancer tissue microarray, four Hodgkin's lymphoma cases
Experimental: Cases were evaluated using flow cytometry for suspected hematopoietic neoplasms. A portion of each fresh specimen was collected into RPMI. […] Any erythrocytes within the specimens were lysed with BD PharmLyse (San Jose, Calif.) and the specimens were washed with BD Staining Buffer with BSA (San Jose, Calif.). Each sample was evaluated using BD FACSCanto II, a three laser, eight-color flow cytometer (San Jose, Calif.) within 24 hours of collection. 50,000 events were collected for each sample. The expression data were analyzed using BD FACSDiva software, version 8.0 (San Jose, Calif.). Cases diagnosed as non-hematopoietic tumors were further subjected to evaluation with PDL-1 peptide if material was available combined with CK to identify the epithelial component. The cell suspensions were stained with 10 μl of BD Cytokeratin FITC (clone CAM5.2), 20 μl of Cy5-conjugated peptide solution, and 10 μl of BD Pharmingen CD274 PE (clone MIH1), incubated in the dark for 30 minutes, washed with BD Stain Buffer with BSA, and reconstituted to 500 μl with Stain Buffer with BSA in […] polystyrene tubes for analysis. The specimens were analyzed on the FACS Canto II using the same panel template, gating strategy, and collection events as the cell line specimens.
PD-L1 expression in patient tissues was analyzed using RK-10-Cy5 and compared to expression in MDA-MB-231 cells and a negative control of normal blood (FIG. 7A). The MFI of the MDA-MB-231 cells was 9,448, while the whole blood gave an MFI of −123. Squamous cell carcinoma and metastatic melanoma samples were investigated for PD-L1 expression using the previously mentioned MFIs as high and negative, respectively. The squamous cell carcinoma was shown as having an MFI of 107,808, while the melanoma sample gave an MFI of 1,250. […] Since […] is consistent with circulating tumor cells, it was thought that RK-10-Cy5 peptide could be used to detect CTCs. To see whether detection of low cell counts was possible, whole blood samples were spiked with MDA-MB-231 cells. MDA-MB-231 were diluted with whole blood, then treated with RK-10-Cy5 and cytokeratin before staining. These samples were also treated with a phycoerythrin-conjugated antibody (cd274) against PD-L1 to further verify PD-L1 detection. Positive signals were detected of cytokeratin and PD-L1 expression at low counts of ˜15 cells in 1 mL whole blood sample using both the peptide and the antibody (FIG. 7B).

T1 sequence (Q9NZQ7 19-290): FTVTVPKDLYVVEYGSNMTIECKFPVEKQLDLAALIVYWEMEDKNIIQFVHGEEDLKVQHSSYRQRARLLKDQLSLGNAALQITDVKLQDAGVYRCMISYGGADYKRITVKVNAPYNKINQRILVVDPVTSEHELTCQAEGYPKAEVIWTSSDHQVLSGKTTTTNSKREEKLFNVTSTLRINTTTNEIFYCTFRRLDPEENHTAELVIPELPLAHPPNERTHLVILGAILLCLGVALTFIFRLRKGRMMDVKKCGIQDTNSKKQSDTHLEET

Substance: Cy5-GSGSGSTYLCGAISLAPKAQIKESL [RK-10-Cy5]
- PD-L1 affinity [1]: high affinity
- mean fluorescence intensity (MFI) ([2]; metastatic melanoma patient sample): 1,250
- mean fluorescence intensity (MFI) ([2]; normal whole blood (negative control), FIG. 7A): −123
- mean fluorescence intensity (MFI) ([2]; squamous cell carcinoma patient sample): 107,808
- low cell count at which positive cytokeratin and PD-L1 signals were detected ([2]; whole blood spiked with MDA-MB-231 cells, FIG. 7B): ~15 cells in 1 mL whole blood
